Measurements: patent US20160272683A1 (Novo Nordisk, published 2016)
Numbered stars: 1 amine (or outer) side, 2 acyl side, 3 side chain; on linkers, the order of the positions; unused ones are H or OH. Square brackets hold non-standard residues; d marks the D form. Side chains are listed from the residue outwards. Ends that are not written are not given here. * marks the point of attachment. C20 diacid = O=C(O)CCCCCCCCCCCCCCCCCCC(=O)*; C18 diacid = O=C(O)CCCCCCCCCCCCCCCCC(=O)*; γGlu = O=C(O)[C@H](CCC(=O)[*:2])N[*:1]

Columns and labels:
[1] = target: rat calcitonin receptor (rat) (UniProt P32214); assay: SPA competition vs 125I-calcitonin, membranes with rat CTR (Assay VIII)
[2] = target: T1, human amylin receptor (human calcitonin receptor + human RAMP3) (human) (UniProt P30988); assay: whole-cell competition vs 125I-rat amylin (Assay Va)
T1 sequence (looked up) 1: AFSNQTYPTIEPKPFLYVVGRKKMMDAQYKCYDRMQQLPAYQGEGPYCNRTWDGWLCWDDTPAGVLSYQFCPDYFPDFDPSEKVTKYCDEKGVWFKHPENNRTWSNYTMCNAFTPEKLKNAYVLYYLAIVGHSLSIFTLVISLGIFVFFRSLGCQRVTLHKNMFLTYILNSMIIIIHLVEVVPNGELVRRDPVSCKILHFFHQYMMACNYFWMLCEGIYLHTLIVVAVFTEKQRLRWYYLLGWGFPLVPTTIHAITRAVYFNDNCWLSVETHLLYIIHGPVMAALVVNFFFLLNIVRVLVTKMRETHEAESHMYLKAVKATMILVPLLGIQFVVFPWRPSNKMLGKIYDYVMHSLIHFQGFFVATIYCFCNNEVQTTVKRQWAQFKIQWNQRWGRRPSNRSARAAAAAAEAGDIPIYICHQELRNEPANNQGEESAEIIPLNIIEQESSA
T1 sequence (looked up) 2: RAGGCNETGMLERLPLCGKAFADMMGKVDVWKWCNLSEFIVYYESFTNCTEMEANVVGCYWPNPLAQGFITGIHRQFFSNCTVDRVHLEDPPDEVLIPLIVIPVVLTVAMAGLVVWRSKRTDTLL

[3] = target: rat amylin receptor (rat calcitonin receptor with rat RAMP 3) (rat) (UniProt P32214); assay: SPA competition vs 125I-rat amylin, membranes with rat CTR + rat RAMP3 (Assay VI)

Work on “[N-terminal(C18 diacid-gGlu-2xOEG), des1, 4G, 9V, 15Q, 21Q, 23Y, 30S, 31G, 32T, 33Y]mimylin (peptide)” yielded an IC50 [1] of 0.032 nM, an IC50 [2] of 0.801 nM and an IC50 [3] of 0.357 nM.

B1: [N-terminal(C20 diacid-gGlu), des1, 9S, 21S, 23Y, 30S, 31G, 33Y]mimylin (peptide)
peptide: {C20 diacid-γGlu}-ASELSTASLGRLSAELHELSTYPRTETGSGSY-NH2
SMILES: CC(C)C[C@H](NC(=O)[C@H](CO)NC(=O)[C@H](C)NC(=O)[C@@H](NC(=O)[C@H](CO)NC(=O)[C@H](CC(C)C)NC(=O)[C@H](CCC(=O)O)NC(=O)[C@H](CO)NC(=O)[C@H](C)NC(=O)CC[C@H](NC(=O)CCCCCCCCCCCCCCCCCCC(=O)O)C(=O)O)[C@@H](C)O)C(=O)NCC(=O)N[C@@H](CCCNC(=N)N)C(=O)N[C@@H](CC(C)C)C(=O)N[C@@H](CO)C(=O)N[C@@H](C)C(=O)N[C@@H](CCC(=O)O)C(=O)N[C@@H](CC(C)C)C(=O)N[C@@H](Cc1c[nH]cn1)C(=O)N[C@@H](CCC(=O)O)C(=O)N[C@@H](CC(C)C)C(=O)N[C@@H](CO)C(=O)N[C@H](C(=O)N[C@@H](Cc1ccc(O)cc1)C(=O)N1CCC[C@H]1C(=O)N[C@@H](CCCNC(=N)N)C(=O)N[C@H](C(=O)N[C@@H](CCC(=O)O)C(=O)N[C@H](C(=O)NCC(=O)N[C@@H](CO)C(=O)NCC(=O)N[C@@H](CO)C(=O)N[C@@H](Cc1ccc(O)cc1)C(N)=O)[C@@H](C)O)[C@@H](C)O)[C@@H](C)O
With B1 the IC50 [1] was 0.062 nM, the IC50 [2] was 3.17 nM and the IC50 [3] was 0.046 nM.

B2: [N-terminal(C20 diacid-gGlu), des1, 15e, 30S, 31G]mimylin (peptide)
peptide: {C20 diacid-γGlu}-ASELSTAALGRLS[dE]ELHELATLPRTETGSGSP-NH2
SMILES: CC(C)C[C@H](NC(=O)[C@H](C)NC(=O)[C@H](C)NC(=O)[C@@H](NC(=O)[C@H](CO)NC(=O)[C@H](CC(C)C)NC(=O)[C@H](CCC(=O)O)NC(=O)[C@H](CO)NC(=O)[C@H](C)NC(=O)CC[C@H](NC(=O)CCCCCCCCCCCCCCCCCCC(=O)O)C(=O)O)[C@@H](C)O)C(=O)NCC(=O)N[C@@H](CCCNC(=N)N)C(=O)N[C@@H](CC(C)C)C(=O)N[C@@H](CO)C(=O)N[C@H](CCC(=O)O)C(=O)N[C@@H](CCC(=O)O)C(=O)N[C@@H](CC(C)C)C(=O)N[C@@H](Cc1c[nH]cn1)C(=O)N[C@@H](CCC(=O)O)C(=O)N[C@@H](CC(C)C)C(=O)N[C@@H](C)C(=O)N[C@H](C(=O)N[C@@H](CC(C)C)C(=O)N1CCC[C@H]1C(=O)N[C@@H](CCCNC(=N)N)C(=O)N[C@H](C(=O)N[C@@H](CCC(=O)O)C(=O)N[C@H](C(=O)NCC(=O)N[C@@H](CO)C(=O)NCC(=O)N[C@@H](CO)C(=O)N1CCC[C@H]1C(N)=O)[C@@H](C)O)[C@@H](C)O)[C@@H](C)O
For B2, the IC50 [1] was 0.017 nM and the IC50 [3] was 0.017 nM.

Ac-ASELSTAALGRLSAELHK([γGlu-C20 diacid])LATLPRTETGSGSP-NH2 [[N-terminal(acetyl), des1, 19K(C20 diacid-gGlu), 30S, 31G]mimylin] showed an IC50 [1] of 0.071 nM and an IC50 [3] of 0.684 nM.

B3: [N-terminal(C20 diacid-gGlu), des1, 23Y, 30S, 31G, 32A]mimylin (peptide)
peptide: {C20 diacid-γGlu}-ASELSTAALGRLSAELHELATYPRTETGSGAP-NH2
SMILES: CC(C)C[C@H](NC(=O)[C@H](C)NC(=O)[C@H](C)NC(=O)[C@@H](NC(=O)[C@H](CO)NC(=O)[C@H](CC(C)C)NC(=O)[C@H](CCC(=O)O)NC(=O)[C@H](CO)NC(=O)[C@H](C)NC(=O)CC[C@H](NC(=O)CCCCCCCCCCCCCCCCCCC(=O)O)C(=O)O)[C@@H](C)O)C(=O)NCC(=O)N[C@@H](CCCNC(=N)N)C(=O)N[C@@H](CC(C)C)C(=O)N[C@@H](CO)C(=O)N[C@@H](C)C(=O)N[C@@H](CCC(=O)O)C(=O)N[C@@H](CC(C)C)C(=O)N[C@@H](Cc1c[nH]cn1)C(=O)N[C@@H](CCC(=O)O)C(=O)N[C@@H](CC(C)C)C(=O)N[C@@H](C)C(=O)N[C@H](C(=O)N[C@@H](Cc1ccc(O)cc1)C(=O)N1CCC[C@H]1C(=O)N[C@@H](CCCNC(=N)N)C(=O)N[C@H](C(=O)N[C@@H](CCC(=O)O)C(=O)N[C@H](C(=O)NCC(=O)N[C@@H](CO)C(=O)NCC(=O)N[C@@H](C)C(=O)N1CCC[C@H]1C(N)=O)[C@@H](C)O)[C@@H](C)O)[C@@H](C)O
B3 gave an IC50 [1] of 0.039 nM, an IC50 [2] of 2.02 nM and an IC50 [3] of 0.026 nM.

B4: [des1, 19K(C20 diacid-gGlu), 30S, 31G]mimylin (peptide)
peptide: ASELSTAALGRLSAELHK([γGlu-C20 diacid])LATLPRTETGSGSP-NH2
modifications: N-terminus assumed
SMILES: CC(C)C[C@H](NC(=O)[C@H](C)NC(=O)[C@H](C)NC(=O)[C@@H](NC(=O)[C@H](CO)NC(=O)[C@H](CC(C)C)NC(=O)[C@H](CCC(=O)O)NC(=O)[C@H](CO)NC(=O)[C@H](C)N)[C@@H](C)O)C(=O)NCC(=O)N[C@@H](CCCNC(=N)N)C(=O)N[C@@H](CC(C)C)C(=O)N[C@@H](CO)C(=O)N[C@@H](C)C(=O)N[C@@H](CCC(=O)O)C(=O)N[C@@H](CC(C)C)C(=O)N[C@@H](Cc1c[nH]cn1)C(=O)N[C@@H](CCCCNC(=O)CC[C@H](NC(=O)CCCCCCCCCCCCCCCCCCC(=O)O)C(=O)O)C(=O)N[C@@H](CC(C)C)C(=O)N[C@@H](C)C(=O)N[C@H](C(=O)N[C@@H](CC(C)C)C(=O)N1CCC[C@H]1C(=O)N[C@@H](CCCNC(=N)N)C(=O)N[C@H](C(=O)N[C@@H](CCC(=O)O)C(=O)N[C@H](C(=O)NCC(=O)N[C@@H](CO)C(=O)NCC(=O)N[C@@H](CO)C(=O)N1CCC[C@H]1C(N)=O)[C@@H](C)O)[C@@H](C)O)[C@@H](C)O
B4 showed an IC50 [1] of 0.044 nM and an IC50 [3] of 0.455 nM.

B5: [N-terminal(C18 diacid-gGlu), des1, 6T, 9V, 14T, 21E, 30T, 31G, 32T]mimylin (peptide)
peptide: {C18 diacid-γGlu}-ASELTTAVLGRLTAELHELETLPRTETGTGTP-NH2
SMILES: CC(C)C[C@H](NC(=O)[C@H](CCC(=O)O)NC(=O)[C@H](C)NC(=O)[C@@H](NC(=O)[C@H](CC(C)C)NC(=O)[C@H](CCCNC(=N)N)NC(=O)CNC(=O)[C@H](CC(C)C)NC(=O)[C@@H](NC(=O)[C@H](C)NC(=O)[C@@H](NC(=O)[C@@H](NC(=O)[C@H](CC(C)C)NC(=O)[C@H](CCC(=O)O)NC(=O)[C@H](CO)NC(=O)[C@H](C)NC(=O)CC[C@H](NC(=O)CCCCCCCCCCCCCCCCC(=O)O)C(=O)O)[C@@H](C)O)[C@@H](C)O)C(C)C)[C@@H](C)O)C(=O)N[C@@H](Cc1c[nH]cn1)C(=O)N[C@@H](CCC(=O)O)C(=O)N[C@@H](CC(C)C)C(=O)N[C@@H](CCC(=O)O)C(=O)N[C@H](C(=O)N[C@@H](CC(C)C)C(=O)N1CCC[C@H]1C(=O)N[C@@H](CCCNC(=N)N)C(=O)N[C@H](C(=O)N[C@@H](CCC(=O)O)C(=O)N[C@H](C(=O)NCC(=O)N[C@H](C(=O)NCC(=O)N[C@H](C(=O)N1CCC[C@H]1C(N)=O)[C@@H](C)O)[C@@H](C)O)[C@@H](C)O)[C@@H](C)O)[C@@H](C)O
Work on B5 yielded an IC50 [1] of 0.072 nM, an IC50 [2] of 22.9 nM and an IC50 [3] of 0.162 nM.

Ac-ASK([γGlu-C20 diacid])LSTAALGRLSAELHELATLPRTETGSGSP-NH2 [[N-terminal(acetyl), des1, 4K(C20 diacid-gGlu), 30S, 31G]mimylin] showed an IC50 [1] of 0.01 nM and an IC50 [3] of 0.046 nM.

Ac-ASELSTAALGRLSAK([γGlu-C20 diacid])LHELATLPRTETGSGSP-NH2 [[N-terminal(acetyl), des1, 16K(C20 diacid-gGlu), 30S, 31G]mimylin] was tested, and the IC50 [1] was 0.042 nM and the IC50 [3] was 0.115 nM.

B6: [N-terminal(C20 diacid-gGlu), des1, 30S, 31G, 33Y]mimylin (peptide)
peptide: {C20 diacid-γGlu}-ASELSTAALGRLSAELHELATLPRTETGSGSY-NH2
SMILES: CC(C)C[C@H](NC(=O)[C@H](C)NC(=O)[C@H](C)NC(=O)[C@@H](NC(=O)[C@H](CO)NC(=O)[C@H](CC(C)C)NC(=O)[C@H](CCC(=O)O)NC(=O)[C@H](CO)NC(=O)[C@H](C)NC(=O)CC[C@H](NC(=O)CCCCCCCCCCCCCCCCCCC(=O)O)C(=O)O)[C@@H](C)O)C(=O)NCC(=O)N[C@@H](CCCNC(=N)N)C(=O)N[C@@H](CC(C)C)C(=O)N[C@@H](CO)C(=O)N[C@@H](C)C(=O)N[C@@H](CCC(=O)O)C(=O)N[C@@H](CC(C)C)C(=O)N[C@@H](Cc1c[nH]cn1)C(=O)N[C@@H](CCC(=O)O)C(=O)N[C@@H](CC(C)C)C(=O)N[C@@H](C)C(=O)N[C@H](C(=O)N[C@@H](CC(C)C)C(=O)N1CCC[C@H]1C(=O)N[C@@H](CCCNC(=N)N)C(=O)N[C@H](C(=O)N[C@@H](CCC(=O)O)C(=O)N[C@H](C(=O)NCC(=O)N[C@@H](CO)C(=O)NCC(=O)N[C@@H](CO)C(=O)N[C@@H](Cc1ccc(O)cc1)C(N)=O)[C@@H](C)O)[C@@H](C)O)[C@@H](C)O
Molecule B6 has an IC50 [1] of 0.023 nM and an IC50 [3] of 0.029 nM.
